pKd: −log10 of the molar value.
Biological target: p185HER-2 (HER-2/neu, erbB-2 receptor tyrosine kinase) (human) (UniProt P04626)
Assay: method not described; binding to cell surface p185HER-2 (statement in the summary)

p68HER-2 (herstatin), product of the alternative HER-2 transcript with retained intron 8 (ligand)
pKd: 7.85

— patent US20040052796A1
